Source: patent publication US20240342322A1 (NETRIS PHARMA, published 2024)

Biological target: T1, recombinant human netrin-1 (R&D) (human, UniProt O95631 25-604, limits assumed)
T1 construct: Bought recombinant protein; also called h-netrin-1; human recombinant netrin-1
Assay: bio-layer interferometry

B1: recombinant human Vitronectin (other, UniProt P04004 20-478, looked up)
chain: DQESCKGRCTEGFNVDKKCQCDELCSYYQSCCTDYTAECKPQVTRGDVFTMPEDEYTVYDDGEEKNNATVHEQVGGPSLTSDLQAQSKGNPEQTPVLKPEEEAPAPEVGASKPEGIDSRPETLHPGRPQPPAEEELCSGKPFDAFTDLKNGSLFAFRGQYCYELDEKAVRPGYPKLIRDVWGIEGPIDAAFTRINCQGKTYLFKGSQYWRFEDGVLDPDYPRNISDGFDGIPDNVDAALALPAHSYSGRERVYFFKGKQYWEYQFQHQPSQEECEGSSLSAVFEHFAMMQRDSWEDIFELLFWGRTSAGTRQPQFISRDWHGVPGQVDAAMAGRIYISGMAPRPSLAKKQRFRHRNRKGYRSQRGHSRGRNQNSRRPSRATWLSLFSSEESNLGANNYDDYRMDWLVPATCEPIQSVFFFSGDKYYRVNLRTRRVDTVDPPYPRSIAQYWLGCPAPGHL
notes: also called h-Vitronectin
binding result: binds
